Experimental data published in paper PMC5893644.

Tests used:
[1] = target: BrYV P3a^P18L, 3xFlag- and GFP-tagged copies (Brassica yellows virus (BrYV-A)); assay: SDS-PAGE and western blot (dimer band under denaturing conditions); total protein of agroinfiltrated N. benthamiana leaves in 2x SDS-PAGE buffer, 100 °C 10 min, 12.5% SDS-PAGE; antisera to GFP or RFP
[2] = target: P3a^P18L-RFP (Brassica yellows virus (BrYV-A)); assay: as above
[3] = target: His.MBP-P3a^P18L fusion protein (Brassica yellows virus (BrYV-A)); assay: SDS-PAGE and western blot (dimer band under denaturing conditions); E. coli Rosetta (DE3) induced with 0.1 mM IPTG at 18 °C for 20 h; 12.5% SDS-PAGE; anti-MBP monoclonal antibody

## BrYV P3a^P18L, 3xFlag- and GFP-tagged copies (from UniProt A0A897TIH8 1-45) (natural protein)
[1]
  stoichiometry N: 2

## P3a^P18L-RFP (from UniProt A0A897TIH8 1-45) (natural protein)
[2]
  stoichiometry N: 2

## His.MBP-P3a^P18L fusion protein (from UniProt A0A897TIH8 1-45) (natural protein)
[3]
  stoichiometry N: 2
